Measurements taken from patent US20250122306A1 (SUTRO BIOPHARMA, published 2025).
Residue numbers refer to the chain shown, from its start.

T1: cynomolgus tissue factor (cynomolgus TF, Sino Bio #90885-C08H) (cynomolgus monkey, UniProt P13726 33-251 (human entry))
T1 construct: bought recombinant antigen; also called cyno TF
T1 chain: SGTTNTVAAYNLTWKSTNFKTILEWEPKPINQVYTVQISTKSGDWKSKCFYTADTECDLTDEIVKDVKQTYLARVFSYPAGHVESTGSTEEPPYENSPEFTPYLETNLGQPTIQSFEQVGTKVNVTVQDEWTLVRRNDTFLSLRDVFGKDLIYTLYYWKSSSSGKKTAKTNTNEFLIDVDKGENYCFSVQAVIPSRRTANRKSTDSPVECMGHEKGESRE

B1: SRP2900-F08 (antibody, IgG1, V domains shown)
VH: EVQLVESGGGLVQPGGSLRLSCAASGFTIAYYIIHWVRQAPGKGLEWVGYIDPSNGYTYYADSVKGRFTISADTSKNTAYLQMNSLRAEDTAVYYCARDDQSLSSPFDYWGQGTLVTVSS
VL: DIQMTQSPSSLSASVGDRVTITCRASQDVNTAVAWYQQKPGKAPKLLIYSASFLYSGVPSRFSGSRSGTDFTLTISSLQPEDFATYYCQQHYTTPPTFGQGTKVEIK
B2: SRP2900-H06 (antibody, IgG1, V domains shown)
VH: B1 VH with Y31A, L103F
VL: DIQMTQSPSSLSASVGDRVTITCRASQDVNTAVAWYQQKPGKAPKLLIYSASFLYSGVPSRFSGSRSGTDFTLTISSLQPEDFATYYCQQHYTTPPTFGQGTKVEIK
B3: SRP2900-H07 (antibody, IgG1, V domains shown)
VH: B1 VH with T28N, I33T, D100P, L103F
VL: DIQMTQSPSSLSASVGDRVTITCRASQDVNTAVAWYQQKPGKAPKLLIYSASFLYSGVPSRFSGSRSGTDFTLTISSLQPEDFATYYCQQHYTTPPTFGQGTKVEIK
B4: SRP2900-F11 (antibody, IgG1, V domains shown)
VH: B1 VH with A30S, Y31G, Y59F, Q82R
VL: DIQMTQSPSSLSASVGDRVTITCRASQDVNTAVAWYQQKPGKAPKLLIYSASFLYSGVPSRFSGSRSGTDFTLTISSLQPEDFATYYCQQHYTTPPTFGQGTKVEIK
B5: SRP2900-H09 (antibody, IgG1, V domains shown)
VH: B1 VH with A30S, Y31D, I33V, L103I, F107L
VL: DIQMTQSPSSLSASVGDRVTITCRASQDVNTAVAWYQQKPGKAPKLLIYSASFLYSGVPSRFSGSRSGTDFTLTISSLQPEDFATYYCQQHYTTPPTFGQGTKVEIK
B6: SRP2900-G05 (antibody, IgG1, V domains shown)
VH: B1 VH with S17L, I33V
VL: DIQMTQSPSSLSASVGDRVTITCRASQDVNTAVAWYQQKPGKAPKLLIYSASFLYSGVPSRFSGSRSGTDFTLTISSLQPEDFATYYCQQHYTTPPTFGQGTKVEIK
B7: SRP2900-F09 (antibody, IgG1, V domains shown)
VH: B1 VH with A30H, Y31D, I33V, L103I, F107L
VL: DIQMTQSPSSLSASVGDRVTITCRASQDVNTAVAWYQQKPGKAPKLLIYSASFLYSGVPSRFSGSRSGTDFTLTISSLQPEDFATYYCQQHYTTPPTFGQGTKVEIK
B8: SRP2900-H11 (antibody, IgG1, V domains shown)
VH: B1 VH with A30S, Y31S, L45P, D100P, S102T, S104T
VL: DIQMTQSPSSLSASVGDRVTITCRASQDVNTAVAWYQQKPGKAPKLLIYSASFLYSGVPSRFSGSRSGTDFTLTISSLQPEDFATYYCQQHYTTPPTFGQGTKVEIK
B9: SRP2900-G03 (antibody, IgG1, V domains shown)
VH: B1 VH with A30N, Y31N, D100P
VL: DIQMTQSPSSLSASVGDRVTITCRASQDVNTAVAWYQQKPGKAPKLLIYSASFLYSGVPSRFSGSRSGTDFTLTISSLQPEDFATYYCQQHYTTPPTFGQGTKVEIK
B10: SRP2900-G02 (antibody, IgG1, V domains shown)
VH: B1 VH with G10D, Q13R, A30S, L103V, D108E
VL: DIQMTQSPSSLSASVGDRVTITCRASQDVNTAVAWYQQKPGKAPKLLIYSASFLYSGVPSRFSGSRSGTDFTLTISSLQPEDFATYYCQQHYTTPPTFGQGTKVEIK

Target: T1, cynomolgus tissue factor (cynomolgus …)
Assay: Biacore SPR, single-point off-rate (100 nM antigen), antibody captured on anti-Fc
Description: (§1) Anti-Fc polyclonal antibodies were immobilized onto a CM4 chip (Cytiva #BR100534) using amine coupling chemistry (Human Antibody Capture Kit, Cytiva #BR100839). The immobilization steps were carried out at a flow rate of 25 μL/min in 1×HBS-EP+buffer (Cytiva #BR100669). The sensor surfaces were activated for 7 min with a mixture of N-hydroxysuccinimide (NHS, 0.05 M) and 1-ethyl-3-(3-dimethylaminopropyl)-carbodiimide (EDC, 0.2 M). The anti-Fc polyclonal antibodies were injected over all 4 flow cells at a concentration of 25 μg/mL in 10 mM sodium acetate, pH 4.5, for 7 min. Ethanolamine (1 M, pH 8.5) was injected for 7 min to block any remaining activated groups.
(§2) Off-rate and kinetic binding experiments were performed at 25° C. using 1×HBS-EP+buffer. Antibodies were injected over the anti-Fc surface at a concentration of 3 μg/mL for 12 seconds at a flow rate of 10 μL/min on flow cells 2, 3 and 4, followed by a buffer wash for 30 seconds at the same flow rate. Single point off-rate analysis was carried out using an antigen concentration of 100 nM. […] After capturing ligand (antibody) on the anti-Fc surface, the analyte (human TF, Lake Pharma; cynomolgus TF, Sino Bio #90885-C08H; mouse TF, R&D Systems #3178-PA) was bound for 180 seconds, followed by a 420 second dissociation phase at a flow rate of […]. Between each ligand capture and analyte binding cycle, regeneration was carried out using 2 injections of 10 mM glycine pH 2.0 for 30 seconds at 30 μL/min, followed by a 30 second buffer wash step.

koff [s⁻¹]	Binder
0.000665	B1
0.000648	B2
0.0013	B3
0.00115	B4
0.00584	B5
0.000667	B6
0.00215	B7
0.000946	B8
0.00195	B9
0.00141	B10

Target: T2, human tissue factor (human TF, Lake Pharma) (human, UniProt P13726 33-251, limits assumed)
T2 construct: bought recombinant antigen; also called CD142
Assay: as above
Description: as §1, §2

koff [s⁻¹]	Binder
0.00131	B1
0.00347	B2
0.00205	B3
0.00204	B4
0.00169	B5
0.00115	B6
0.00139	B7
0.0025	B8
0.000699	B9
0.00415	B10

Target: tissue factor reagent of the Tissue Factor Activity Assay Kit (Abcam #ab108906) (UniProt P13726 33-295, limits assumed)
Assay: cell-based or functional assay

FX conversion (% inhibition), 1000 nM antibody [%]	Binder
9.78	B1
4.04	B2
13.5	B3
6.38	B4
4.48	B5
12.1	B6
5.23	B7
-3.63	B8
20	B9
-0.11	B10
